In one data set the target is PR-LBD (UniProt P06401 675-933). The data set is described as follows: aptamer ELISA; negligible binding; ITC: 10 mM Tris-HCl pH 8.0, 25 C; aptamer binding buffer (SELEX): 20 mM Tris-HCl pH 7.6, 120 mM NaCl, 5 mM KCl, 1 mM MgCl2, 1 mM CaCl2, RT (ca. 27 C); ELISA: 2. The settings on record: protein: commercial; tags: GST. A general note: An ELISA detects its analyte on a solid surface through an enzyme-linked reagent.

The next data set deals with PR-DBD (human (cDNA from MCF-7), UniProt P06401 567-639). Described as above. The settings on record: protein: recombinant; tags: His (pET100/D-TOPO).
The next data set has as its target ERα full length (UniProt P03372 1-595). The data set is described as follows: aptamer ELISA; 500 nM aptamer; ITC: 10 mM Tris-HCl pH 8.0, 25 C; aptamer binding buffer (SELEX): 20 mM Tris-HCl pH 7.6, 120 mM NaCl, 5 mM KCl, 1 mM MgCl2, 1 mM CaCl2, RT (ca. 27 C); ELISA: 2. The settings on record: protein: commercial, chain copies: 2.

Sequence of ERα full length (P03372 whole entry): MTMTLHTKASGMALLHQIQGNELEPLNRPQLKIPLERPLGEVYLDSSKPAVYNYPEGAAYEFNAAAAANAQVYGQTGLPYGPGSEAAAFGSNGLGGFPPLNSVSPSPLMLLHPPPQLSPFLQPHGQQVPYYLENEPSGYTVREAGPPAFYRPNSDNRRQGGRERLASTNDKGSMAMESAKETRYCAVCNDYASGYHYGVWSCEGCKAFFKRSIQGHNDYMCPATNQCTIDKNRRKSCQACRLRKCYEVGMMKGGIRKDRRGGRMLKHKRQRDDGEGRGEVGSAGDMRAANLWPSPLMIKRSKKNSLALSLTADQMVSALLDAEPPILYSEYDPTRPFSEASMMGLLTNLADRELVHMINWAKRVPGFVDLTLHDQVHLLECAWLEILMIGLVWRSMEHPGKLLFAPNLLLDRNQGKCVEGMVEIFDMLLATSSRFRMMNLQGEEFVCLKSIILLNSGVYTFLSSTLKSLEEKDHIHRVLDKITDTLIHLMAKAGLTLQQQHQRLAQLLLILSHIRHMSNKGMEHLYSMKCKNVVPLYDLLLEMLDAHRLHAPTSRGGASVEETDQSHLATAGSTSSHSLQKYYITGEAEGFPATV
Sequence of PR-LBD (P06401 675-933): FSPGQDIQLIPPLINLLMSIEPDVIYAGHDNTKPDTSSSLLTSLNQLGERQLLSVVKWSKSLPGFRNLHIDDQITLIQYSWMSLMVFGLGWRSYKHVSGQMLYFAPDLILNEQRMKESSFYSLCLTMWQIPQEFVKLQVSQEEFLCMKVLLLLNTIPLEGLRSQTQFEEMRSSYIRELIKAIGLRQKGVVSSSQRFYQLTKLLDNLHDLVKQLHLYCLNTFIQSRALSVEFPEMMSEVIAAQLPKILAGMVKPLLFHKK
Sequence of PR-DBD (P06401 567-639): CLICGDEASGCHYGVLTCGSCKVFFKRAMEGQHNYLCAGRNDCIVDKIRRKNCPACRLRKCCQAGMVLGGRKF

B1: ERaptD4 (ssDNA)
DNA: ATACCAGCTTATTCAATTCGTTGCATTTAGGTGCATTACGGGGGTTATCCGCTCTCTCAGATAGTATGTGCAATCA
Regarding B1, the binding result with PR-LBD and with PR-DBD was “no binding” throughout. Moreover, the binding signal with ERα full length is 78.5 % of anti-ERα antibody signal.

B2: ERaptD8 (ssDNA)
DNA: ATACCAGCTTATTCAATTCGAGTAACGCTGTCTCTTCCGAATCGGGGGAAGGCGGAGGAGATAGTATGTGCAATCA
Turning to B2, the binding signal with ERα full length (label: biotin) was 50.5 % of anti-ERα antibody signal.

B3: ERaptD3 (ssDNA)
DNA: ATACCAGCTTATTCAATTGGGGATAACGTCGTCACGTCGTGTCATCATTGGTTCAGTCAGATAGTATGTGCAATCA
Turning to B3, the binding signal with ERα full length (label: biotin) is 47.3 % of anti-ERα antibody signal.

The record behind these values is publication PMC4820125, “Aptamer-Assisted Detection of the Altered Expression of Estrogen Receptor Alpha in Human Breast Cancer”.
